For orientation: Kd means the equilibrium constant for the complex coming apart.

The labels stand for the following.
T1: recombinant human B7-H3-his extracellular domain protein (UniProtKB-Q5ZPR3, 1 aa-461 aa) (human, UniProt Q5ZPR3 29-461)
T1 construct: range 1-461; The printed range 1-461 starts at residue 1 and so includes the signal peptide; also called Human B7-H3 ECD; recombinant human B7-H3-his protein; not shown: C-terminal his tag
T1 sequence (looked up): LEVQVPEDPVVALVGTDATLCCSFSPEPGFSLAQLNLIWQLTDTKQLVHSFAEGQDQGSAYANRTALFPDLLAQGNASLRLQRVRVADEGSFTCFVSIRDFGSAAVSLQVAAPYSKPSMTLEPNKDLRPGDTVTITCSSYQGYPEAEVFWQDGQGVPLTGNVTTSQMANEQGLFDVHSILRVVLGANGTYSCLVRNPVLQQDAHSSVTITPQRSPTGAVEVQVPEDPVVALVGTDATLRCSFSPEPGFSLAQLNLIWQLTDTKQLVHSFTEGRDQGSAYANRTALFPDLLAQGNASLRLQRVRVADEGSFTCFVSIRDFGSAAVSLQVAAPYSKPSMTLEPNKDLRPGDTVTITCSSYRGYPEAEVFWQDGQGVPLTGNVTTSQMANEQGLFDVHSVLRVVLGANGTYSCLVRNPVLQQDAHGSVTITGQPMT

B1: hz10B4-8 (antibody, human IgG1, kappa)
heavy: not shown
light: DIQLTQSPSSLSASVGDRVTMTCSASSSVSYMHWYQQKPGKAPKLLIYDTSKLASGVPSRFSGSGSGTDFTLTISSLQPEDFATYYCQQWSSNPLTFGGGTKVEIKRTVAAPSVFIFPPSDEQLKSGTASVVCLLNNFYPREAKVQWKVDNALQSGNSQESVTEQDSKDSTYSLSSTLTLSKADYEKHKVYACEVTHQGLSSPVTKSFNRGEC
notes: hz10B4_VH4 + hz10B4_VL2; human IgG1, kappa
B2: hz10B4-6 (antibody, human IgG1, kappa)
heavy: not shown
light: DIQLTQSPSSLSASVGDRVTMTCSASSSVSYMHWYQQKPGKAPKLLIYDTSKLASGVPSRFSGSGSGTDFTLTISSLQPEDFATYYCQQWSSNPLTFGGGTKVEIKRTVAAPSVFIFPPSDEQLKSGTASVVCLLNNFYPREAKVQWKVDNALQSGNSQESVTEQDSKDSTYSLSSTLTLSKADYEKHKVYACEVTHQGLSSPVTKSFNRGEC
notes: hz10B4_VH2 + hz10B4_VL2; human IgG1, kappa
B3: hz10B4-1 (antibody, human IgG1, kappa)
heavy: not shown
light: DIQMTQSPSSLSASVGDRVTMTCSASSSVSYMHWYQQKPGKAPKLLIYDTSKLASGVPSRFSGSGSGTDFTLTISSLQPEDFATYYCQQWSSNPLTFGGGTKVEIKRTVAAPSVFIFPPSDEQLKSGTASVVCLLNNFYPREAKVQWKVDNALQSGNSQESVTEQDSKDSTYSLSSTLTLSKADYEKHKVYACEVTHQGLSSPVTKSFNRGEC
notes: hz10B4_VH1 + hz10B4_VL1; human IgG1, kappa
B4: hz10B4-5 (antibody, human IgG1, kappa)
heavy: not shown
light: DIQLTQSPSSLSASVGDRVTMTCSASSSVSYMHWYQQKPGKAPKLLIYDTSKLASGVPSRFSGSGSGTDFTLTISSLQPEDFATYYCQQWSSNPLTFGGGTKVEIKRTVAAPSVFIFPPSDEQLKSGTASVVCLLNNFYPREAKVQWKVDNALQSGNSQESVTEQDSKDSTYSLSSTLTLSKADYEKHKVYACEVTHQGLSSPVTKSFNRGEC
notes: hz10B4_VH1 + hz10B4_VL2; human IgG1, kappa
B5: hz10B4-2 (antibody, human IgG1, kappa)
heavy: not shown
light: DIQMTQSPSSLSASVGDRVTMTCSASSSVSYMHWYQQKPGKAPKLLIYDTSKLASGVPSRFSGSGSGTDFTLTISSLQPEDFATYYCQQWSSNPLTFGGGTKVEIKRTVAAPSVFIFPPSDEQLKSGTASVVCLLNNFYPREAKVQWKVDNALQSGNSQESVTEQDSKDSTYSLSSTLTLSKADYEKHKVYACEVTHQGLSSPVTKSFNRGEC
notes: hz10B4_VH2 + hz10B4_VL1; human IgG1, kappa
B6: hz10B4-3 (antibody, human IgG1, kappa)
heavy: not shown
light: DIQMTQSPSSLSASVGDRVTMTCSASSSVSYMHWYQQKPGKAPKLLIYDTSKLASGVPSRFSGSGSGTDFTLTISSLQPEDFATYYCQQWSSNPLTFGGGTKVEIKRTVAAPSVFIFPPSDEQLKSGTASVVCLLNNFYPREAKVQWKVDNALQSGNSQESVTEQDSKDSTYSLSSTLTLSKADYEKHKVYACEVTHQGLSSPVTKSFNRGEC
notes: hz10B4_VH3 + hz10B4_VL1; human IgG1, kappa
B7: hz10B4-9 (antibody, human IgG1, kappa, V domains shown)
VH: EVQLVQSGAEVKKPGASVKVSCKASGYTFTEYIMHWVRQAPGQGLEWMGGINPASGGTTYNQKFKGRVTMTRDTSISTAYMELSRLRSEDTAVYYCARKGKDYFDWYFDVWGQGTTVTVSS
VL: DIQLTQSPSSLSASVGDRVTMTCSASSSVSYMHWYQQKPGKAPKLLIYDTSKLASGVPSRFSGSGSGTDFTLTISSLQPEDFATYYCQQWSSAPLTFGGGTKVEIKR
notes: hz10B4_VH3 + hz10B4_VL3; human IgG1, kappa
B8: hz10B4-10 (antibody, human IgG1, kappa, V domains shown)
VH: EVQLVQSGAEVKKPGASVKVSCKASGYTFTEYIMHWVRQAPGQGLEWMGGINPASGGTTYNQKFKGRVTMTRDTSISTAYMELSRLRSEDTAVYYCARKGKDYFDWYFDVWGQGTTVTVSS
VL: DIQLTQSPSSLSASVGDRVTMTCSASSSVSYMHWYQQKPGKAPKLLIYDTSKLASGVPSRFSGSGSGTDFTLTISSLQPEDFATYYCQQWSASPLTFGGGTKVEIKR
notes: hz10B4_VH3 + hz10B4_VL4; human IgG1, kappa
B9: hz10B4-4 (antibody, human IgG1, kappa)
heavy: not shown
light: DIQMTQSPSSLSASVGDRVTMTCSASSSVSYMHWYQQKPGKAPKLLIYDTSKLASGVPSRFSGSGSGTDFTLTISSLQPEDFATYYCQQWSSNPLTFGGGTKVEIKRTVAAPSVFIFPPSDEQLKSGTASVVCLLNNFYPREAKVQWKVDNALQSGNSQESVTEQDSKDSTYSLSSTLTLSKADYEKHKVYACEVTHQGLSSPVTKSFNRGEC
notes: hz10B4_VH4 + hz10B4_VL1; human IgG1, kappa

The assay has as its target T1, recombinant human B7-H3-his …. Briefly: BLI (Octet QKe), antibody on AHC biosensor, B7-H3-his 60 nM in solution. On the procedure: According to the mutation designs, site-directed mutagenesis was performed in the plasmids expressing the humanized light chains and heavy chains respectively using StarMut gene Site-directed Mutagenesis Kit (Cat.: T111-01, GenStar). The mutated plasmids were transformed into E. coli cells for expansion, and plasmids expressing the humanized and mutated light and heavy chains based on the antibodies 9B11, 10B4, and 17A3 were obtained. […] 5-6 days after cell transfection, culture supernatants were purified through ProA affinity chromatography column to obtain different humanized antibodies. Affinities of the antibodies were determined by an assay including capturing Fc fragments of the antibodies with anti-human IgG Fc capture (AHC) biosensors using Octet QKe system instrument from Fortebio. For the assay, each of the humanized antibodies and the chimeric antibodies based on the antibodies 9B11, 10B4, and 17A3 was diluted to 4 μg/ml in PBS, and was allowed to flow through the surface of an AHC biosensor (Cat.: 18-0015, PALL) for 300 s. Recombinant human B7-H3-his protein (Accession No.: UniProtKB-Q5ZPR3, 1 aa-461 aa) was used as a mobile phase, and its concentration was 60 nM. The association time was 100 s and the dissociation time was 300 s. When the assay was finished, data from which the response values of blank control had been deducted were fitted to a 1:1 Langmuir binding model using software, and then kinetic constants for antigen-antibody binding were calculated. The light and heavy chain combinations and the affinity constant KD values of the humanized and the mutant antibodies based on the antibodies 9B11, 10B4, and 17A3 are shown in Tables 6-8 respectively.
A general note: Biolayer interferometry detects binding as a change in optical thickness at a sensor tip.
As for B1, the Kd stood at 0.211 nM.

In the case of B2, the Kd is 0.131 nM.

B3: the Kd was 0.827 nM.

On to B4, for which the Kd was determined as 0.998 nM.

In the case of B5, the Kd was found to be 0.177 nM.

With B6, the Kd turned out to be 0.341 nM.

As for B7, the Kd is 0.352 nM.

B8: the Kd amounted to 0.381 nM.

Take B9: the Kd amounted to 0.501 nM.

The record behind these values is US20250269047A1 (MABWELL SHANGHAI BIOSCIENCE, published 2025).
